Laboratory results published in patent publication US11180767B2, “Protease deficient filamentous fungal cells and methods of use thereof” (GLYKOS FINLAND OY, priority 2012, dated 2021).

Tested on: rituximab antibody producing strain
Assay: Treatment of T. reesei rituximab cultures with inhibitors
Assay type: cell-based, Trichoderma reesei
Procedure: The effectiveness of the inhibitors was also tested with the rituximab antibody producing strain, which contains a VALEKR linker sequence and the pep1 deletion. This strain was grown in triplicate, in small flasks both in presence or absence of chymostatin, SBTI, or pepstatin A. The small shake flasks contained 50 ml of TrMM plus lactose (40 g/l), spent grain extract (20 g/l), and buffer with 100 mM PIPPS at pH 5.5. The SBTI inhibitor was added to the culture at final concentrations of either 100 μg/ml or 500 μg/ml. Chymostatin was used at 100 μM, and pepstatin A was used at 10 μM. Each of the three inhibitors was added to the cultures daily on day 2, 3, 4, and 5.
Growth of the cultures was followed daily by pH from day 2 until day 7. […] In the PIPPS buffered cultures, the pH decreased from an initial pH of 5.5 down to a pH of 4.8 after day 6. With chymostatin and pepstatin A the cultures were monitored up to day 7. On day 7 the average pH for the control bottles was 4.6, while the average pH for chymostatin treated cultures was 4.9, and the average pH of pepstatin A treated cultures was 5.0.
Culture supernatant samples (30 μl) were also collected on days 3, 4, and 5 for analysis of antibody production. The analysis was performed by immunoblots using an anti-IgG heavy chain antibody AP conjugate (Sigma #A3188) and an anti-light chain antibody AP conjugate (Sigma #A3812). Each antibody was diluted 1:30,000 in TBST. The full length rituximab heavy chain is about 51 kD, the rituximab light chain CHBI fusion is about 100 kD, and the free rituximab light chain is about 28 kD.

B1: SBTI: soybean trypsin inhibitor, trypsin and subtilisin inhibitor (protein)
chain: DFVLDNEGNPLENGGTYYILSDITAFGGIRAAPTGNERCPLTVVQSRNELDKGIGTIISSPYRIRFIAEGHPLSLKFDSFAVIMLCVGIPTEWSVVEDLPEGPAVKIGENKDAMDGWFRLERVSDDEFNNYKLVFCPQQAEDDKCGDIGISIDHDDGTRRLVVSKNKPLVVQFQKLDKESL
effect on culture growth (followed by pH): no significant differences in the pH
rituximab light chain production vs untreated cultures (SBTI 100 or 500 μg/ml): minor improvement
rituximab heavy chain production vs untreated cultures (day 5, SBTI 100 or 500 μg/ml, chymostatin 100 μM): several fold higher
